Data from publication PMC8018780, “Two peptides targeting endothelial receptors are internalized into murine brain endothelial cells” (PLoS ONE, 2021).
pKd: −log10 of the molar value. Ends that are not written are not given here. Peptide text beside a SMILES is read from it. * marks the point of attachment. 5TAMRA = CN(C)c1ccc2c(c1)Oc1cc(N(C)C)ccc1C21OC(=O)c2cc(C(=O)*)ccc21

Legend:
[1] = target: T1, LRP-1 purified from human placenta (Homo sapiens, UniProt Q07954); test: SPR binding to immobilized LRP-1 (Biacore 3000, CM5 chip); details: unlabeled peptide, 0.25-4 μM, 5 μL/min, 25°C, HEPES buffer pH 7.4, Langmuir 1:1 global fit
T1 construct: LRP-1 was purified from human placenta according to a previously described protocol; from tissue; host or cells: human placenta
Description: (§1) The binding affinity analysis of the MTf and GYR peptides was performed using the Biacore 3000 system (Cytiva, UK) equipped with a CM5 sensor chip. The sensor chip was initially activated by injection of 0.2 M 1-ethyl-3-(3-dimethylaminopropyl) carbodiimide hydrochloride and 0.05 M N-hydroxysuccinimide in water. Recombinant human and mouse TfR protein (SinoBiological, Inc., Beijing, PRC) was purchased with a His-tag and immobilized on the sensor chip at 58 fmol/mm^2. LRP-1 was purified from human placenta according to a previously described protocol and immobilized to densities of 0.025 fmol/mm^2. The remaining carboxylate groups were blocked with 1 M ethanolamine. The MTf and GYR peptides were injected for binding to the immobilized TfR or LRP-1 protein at 5 μL/min at 25°C in 10 mM HEPES, 150 mM NaCl, 1.5 mM CaCl2, 1 mM EGTA, and 0.005% Tween 20 (pH 7.4) at five different concentrations (0.25 μM, 0.5 μM, 1 μM, 2 μM and 4 μM). The reference flow channel (FC1) was activated and blocked but without immobilized TfR or LRP-1. The dissociation constant (KD) values were calculated using the BIAevaluation 4.1 software (Cytiva, UK) using the predefined Langmuir 1:1 interaction model and fitted using a drifting baseline with global fitting to the curves of the considered concentration range.

bEnd.3 cells = test: Translocation study based on fluorescence intensity measurement (Transwell, non-contact co-culture with rat astrocytes); assay type: in vitro ADME, mouse; details: for Pe ("real" endothelial permeability): 1/Pe = 1/Papp,bEnd.3+filter − 1/Papp,filter, fluorescence; for Papp,F (apparent permeability through filter): cell-free collagen-coated polyester Transwell filter, 0.4 μm pores, fluorescence Ex 535/Em 585 nm
Description: (§2) For the translocation studies, an in vitro contact and non-contact co-culture model was used. Forty thousand bEnd.3 cells were seeded on the upper side of the collagen-coated Transwell insert and maintained in cDMEM for 24 hours (contact co-culture) or immediately transferred into a 12-well plate in which rat astrocytes were grown for at least three weeks (non-contact co-culture). In the case of contact co-culture, 24 hours after plating the bEnd.3 approx. 150,000 rat astrocytes were seeded on the bottom side of the flipped Transwell inserts, which was coated with 5 μg/ml poly-L-lysine (P1524, Sigma-Aldrich), and incubated for 2 hours at 37°C. The inserts were then flipped back to the original side and placed into a 12-well plate with rat astrocytes. The cells were cultured in cDMEM at 37°C with 5% CO2/95% air and saturated humidity, and the experiments were performed 4.5–5 days post-seeding of bEnd.3 cells. The medium was switched to phenol red-free cDMEM the day before the experiment.
(§3) These experiments were performed using the bEnd.3 cells that were cultured with rat astrocytes in a non-contact co-culture model and with cell-free filters as negative controls. On the day of the experiment, the inserts were transferred to a new astrocyte-free 12-well plate, and the medium was changed on both the apical and basolateral sides. The apical side of the membrane was exposed to 10 μM MTfp or GYR for 2 hours while the plates were gently shaken to overcome unstirred water-layer effects. After the 2 hours exposure time, 150 μL sample was taken from both apical and basolateral compartments, and the fluorescence intensity was read by a CLARIOstar® Plus microplate reader (BMG Labtech) (λExc = 535 nm, λEm = 585 nm, Bandwidth = 20 and 30 nm, respectively). The translocation of the peptides is presented as permeability coefficient (a concentration independent transport parameter) and was determine by using the clearance principle.
(§4) The following equations [27] were used to calculate the permeability coefficient: Papp[cm/s]=B/T⋅vb/A⋅t⋅60 (1) Where Papp is the apparent permeability, B is the relative fluorescence unit (RFU) at time t, T is the top chamber RFU at time 0 (constant), Vb is the volume of the bottom channel [ml], A is the cross-section area of the membrane [cm^2], and t is the time [min].
(§5) The translocation experiments were performed three times in technical triplicates, and the data are represented as mean (SD).

[2] = as above; assay type: in vitro ADME, mouse; details: mouse; bEnd.3 non-contact co-culture with rat astrocytes, polyester Transwell 0.4 μm; 10 μM apical, 2 h, shaken, apical to basolateral; fluorescence (RFU values) Ex 535/Em 585 nm; mean (SD) of three independent experiments with triplicates; read-out: Papp, bEnd.3+F (apparent permeability through bEnd.3 grown on filter)
Description: as §2, §3, §4, §5

[3] = target: T2, Recombinant mouse TfR protein (mTfR) (Mus musculus, UniProt Q62351); test: SPR binding to immobilized mouse TfR (Biacore 3000, CM5 chip); details: unlabeled peptide, 0.25-4 μM, 25°C, pH 7.4, Langmuir 1:1 global fit
T2 construct: His-tag; purchased SinoBiological, Inc., Beijing, PRC
Description: as §1

[4] = 10 μM apical, 2 h, mean (SD) of three independent experiments with triplicates
[5] = 10 μM apical, 2 h, shaken, apical to basolateral, mean (SD) of three independent experiments with triplicates
[6] = alternative calculation, 10 μM apical, 120 min

T1 sequence (Q07954 20-4544): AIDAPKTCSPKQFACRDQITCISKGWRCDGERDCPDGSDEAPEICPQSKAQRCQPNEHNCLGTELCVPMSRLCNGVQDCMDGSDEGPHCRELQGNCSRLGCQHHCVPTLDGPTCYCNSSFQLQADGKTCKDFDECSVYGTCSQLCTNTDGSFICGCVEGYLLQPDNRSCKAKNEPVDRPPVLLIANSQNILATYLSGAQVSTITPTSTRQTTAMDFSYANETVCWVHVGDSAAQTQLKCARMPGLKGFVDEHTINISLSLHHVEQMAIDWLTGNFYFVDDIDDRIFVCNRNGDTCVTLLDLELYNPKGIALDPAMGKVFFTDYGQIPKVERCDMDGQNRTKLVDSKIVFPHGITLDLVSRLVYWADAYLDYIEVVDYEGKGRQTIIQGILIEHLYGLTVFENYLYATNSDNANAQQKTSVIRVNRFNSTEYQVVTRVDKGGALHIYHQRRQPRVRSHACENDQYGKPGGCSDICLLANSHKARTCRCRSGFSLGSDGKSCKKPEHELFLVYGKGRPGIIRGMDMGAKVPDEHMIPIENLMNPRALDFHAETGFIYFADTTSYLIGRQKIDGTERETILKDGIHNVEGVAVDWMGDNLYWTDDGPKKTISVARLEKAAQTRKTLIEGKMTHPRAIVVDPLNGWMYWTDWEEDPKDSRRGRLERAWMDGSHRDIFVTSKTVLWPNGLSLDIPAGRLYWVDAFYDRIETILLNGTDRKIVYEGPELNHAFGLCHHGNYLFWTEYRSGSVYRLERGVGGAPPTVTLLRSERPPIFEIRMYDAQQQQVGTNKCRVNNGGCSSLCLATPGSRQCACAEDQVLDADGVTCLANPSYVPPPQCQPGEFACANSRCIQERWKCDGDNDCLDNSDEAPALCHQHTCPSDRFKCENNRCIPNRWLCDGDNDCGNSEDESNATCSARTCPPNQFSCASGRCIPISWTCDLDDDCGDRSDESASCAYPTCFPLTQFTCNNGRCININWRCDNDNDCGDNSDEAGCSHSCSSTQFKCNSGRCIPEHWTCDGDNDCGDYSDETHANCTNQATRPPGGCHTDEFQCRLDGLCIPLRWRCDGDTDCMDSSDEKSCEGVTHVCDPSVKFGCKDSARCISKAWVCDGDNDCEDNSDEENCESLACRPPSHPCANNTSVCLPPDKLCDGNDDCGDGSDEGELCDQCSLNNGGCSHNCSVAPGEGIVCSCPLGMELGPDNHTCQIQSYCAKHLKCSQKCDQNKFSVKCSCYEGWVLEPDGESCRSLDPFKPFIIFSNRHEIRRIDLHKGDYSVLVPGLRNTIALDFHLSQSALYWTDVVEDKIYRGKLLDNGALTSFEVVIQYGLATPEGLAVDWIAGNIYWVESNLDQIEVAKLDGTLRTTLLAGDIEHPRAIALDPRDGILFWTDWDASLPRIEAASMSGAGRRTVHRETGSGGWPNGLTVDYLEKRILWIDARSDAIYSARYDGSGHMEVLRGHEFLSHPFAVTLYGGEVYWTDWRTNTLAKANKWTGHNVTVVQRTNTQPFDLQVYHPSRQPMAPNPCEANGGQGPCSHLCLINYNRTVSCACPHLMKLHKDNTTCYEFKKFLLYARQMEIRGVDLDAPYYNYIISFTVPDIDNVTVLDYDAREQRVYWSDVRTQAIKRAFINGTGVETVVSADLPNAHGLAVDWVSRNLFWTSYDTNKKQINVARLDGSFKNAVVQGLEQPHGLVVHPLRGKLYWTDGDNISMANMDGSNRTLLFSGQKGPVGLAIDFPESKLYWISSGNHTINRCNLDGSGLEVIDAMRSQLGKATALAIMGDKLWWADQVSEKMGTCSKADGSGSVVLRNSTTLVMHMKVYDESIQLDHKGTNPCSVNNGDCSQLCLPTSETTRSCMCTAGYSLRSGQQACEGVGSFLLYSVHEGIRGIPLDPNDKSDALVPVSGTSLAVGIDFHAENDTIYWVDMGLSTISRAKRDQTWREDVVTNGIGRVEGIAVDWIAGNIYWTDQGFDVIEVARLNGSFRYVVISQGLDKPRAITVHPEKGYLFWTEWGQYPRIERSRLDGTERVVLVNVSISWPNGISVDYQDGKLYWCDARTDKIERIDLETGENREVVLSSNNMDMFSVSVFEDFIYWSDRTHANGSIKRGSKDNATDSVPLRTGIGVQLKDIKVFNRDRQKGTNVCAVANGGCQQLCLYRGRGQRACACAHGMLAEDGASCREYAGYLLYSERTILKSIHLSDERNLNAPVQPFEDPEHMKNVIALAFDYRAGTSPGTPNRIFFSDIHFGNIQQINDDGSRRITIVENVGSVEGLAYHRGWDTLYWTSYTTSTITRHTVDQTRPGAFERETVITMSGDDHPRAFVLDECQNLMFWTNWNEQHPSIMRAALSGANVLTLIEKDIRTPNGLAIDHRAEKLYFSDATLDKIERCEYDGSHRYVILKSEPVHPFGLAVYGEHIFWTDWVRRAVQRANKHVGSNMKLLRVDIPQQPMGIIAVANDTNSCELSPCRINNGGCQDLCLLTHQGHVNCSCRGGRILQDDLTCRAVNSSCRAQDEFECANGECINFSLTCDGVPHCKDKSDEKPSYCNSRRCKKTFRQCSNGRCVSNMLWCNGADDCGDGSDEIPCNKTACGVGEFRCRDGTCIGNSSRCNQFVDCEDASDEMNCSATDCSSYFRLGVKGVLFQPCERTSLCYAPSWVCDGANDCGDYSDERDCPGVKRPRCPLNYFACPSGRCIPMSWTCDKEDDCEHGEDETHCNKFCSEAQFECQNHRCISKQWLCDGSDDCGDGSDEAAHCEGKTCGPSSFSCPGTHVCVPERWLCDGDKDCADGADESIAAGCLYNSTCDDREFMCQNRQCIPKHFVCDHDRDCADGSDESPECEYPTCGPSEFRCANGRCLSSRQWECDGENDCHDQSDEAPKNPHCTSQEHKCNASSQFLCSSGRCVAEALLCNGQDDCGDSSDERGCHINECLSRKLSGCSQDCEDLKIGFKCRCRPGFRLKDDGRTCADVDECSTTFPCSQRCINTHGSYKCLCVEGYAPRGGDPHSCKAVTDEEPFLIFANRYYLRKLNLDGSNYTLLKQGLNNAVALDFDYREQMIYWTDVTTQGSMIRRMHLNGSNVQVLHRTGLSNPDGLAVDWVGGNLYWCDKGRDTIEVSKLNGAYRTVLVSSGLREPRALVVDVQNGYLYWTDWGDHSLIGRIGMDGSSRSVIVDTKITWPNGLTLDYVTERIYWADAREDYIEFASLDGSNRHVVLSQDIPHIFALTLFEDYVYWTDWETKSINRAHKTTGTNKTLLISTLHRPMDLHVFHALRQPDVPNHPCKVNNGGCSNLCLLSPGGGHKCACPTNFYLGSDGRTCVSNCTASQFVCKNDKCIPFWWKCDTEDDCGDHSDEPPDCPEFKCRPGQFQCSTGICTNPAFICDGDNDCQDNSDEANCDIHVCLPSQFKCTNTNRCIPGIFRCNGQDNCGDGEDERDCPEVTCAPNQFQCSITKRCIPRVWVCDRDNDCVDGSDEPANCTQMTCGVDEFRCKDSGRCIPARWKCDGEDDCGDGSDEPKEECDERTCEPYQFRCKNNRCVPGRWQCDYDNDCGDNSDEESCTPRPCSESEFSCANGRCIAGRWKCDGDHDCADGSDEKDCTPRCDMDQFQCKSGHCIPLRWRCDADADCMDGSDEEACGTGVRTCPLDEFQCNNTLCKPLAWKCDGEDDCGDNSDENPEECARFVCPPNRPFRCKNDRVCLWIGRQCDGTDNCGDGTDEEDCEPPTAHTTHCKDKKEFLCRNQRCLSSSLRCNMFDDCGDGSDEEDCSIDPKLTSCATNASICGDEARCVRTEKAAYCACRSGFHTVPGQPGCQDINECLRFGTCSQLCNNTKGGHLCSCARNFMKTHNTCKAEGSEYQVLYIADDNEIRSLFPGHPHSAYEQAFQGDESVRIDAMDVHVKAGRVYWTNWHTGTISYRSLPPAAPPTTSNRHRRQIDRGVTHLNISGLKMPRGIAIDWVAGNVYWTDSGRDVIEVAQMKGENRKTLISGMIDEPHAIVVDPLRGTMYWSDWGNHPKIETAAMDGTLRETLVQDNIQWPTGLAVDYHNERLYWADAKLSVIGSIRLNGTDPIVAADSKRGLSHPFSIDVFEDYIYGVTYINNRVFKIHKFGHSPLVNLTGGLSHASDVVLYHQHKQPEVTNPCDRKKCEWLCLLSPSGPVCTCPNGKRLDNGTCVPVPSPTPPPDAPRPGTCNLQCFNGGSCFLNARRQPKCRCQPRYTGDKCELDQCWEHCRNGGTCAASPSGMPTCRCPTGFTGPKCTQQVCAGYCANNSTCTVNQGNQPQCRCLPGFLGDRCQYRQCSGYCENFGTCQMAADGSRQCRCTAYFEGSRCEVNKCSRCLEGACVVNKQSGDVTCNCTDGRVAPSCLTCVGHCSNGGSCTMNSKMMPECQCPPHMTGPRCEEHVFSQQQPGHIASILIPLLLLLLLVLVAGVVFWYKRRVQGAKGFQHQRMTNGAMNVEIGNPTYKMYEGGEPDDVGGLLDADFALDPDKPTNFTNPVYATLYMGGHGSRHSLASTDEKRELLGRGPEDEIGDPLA

| Molecule | pKd [1] | Pe ("real" endothelial permeability) (bEnd.3 cells; [4]) | Papp,F (apparent permeability through filter) (bEnd.3 cells; [5]) | also measured |
| --- | --- | --- | --- | --- |
| FRCLVENRGDVPFVTRIR-NH2 [MTfp] | 9.24 | – | – | – |
| CC[C@H](C)[C@H](NC(=O)[C@H](CCCNC(=N)N)NC(=O)[C@@H](NC(=O)[C@@H](NC(=O)[C@H](Cc1ccccc1)NC(=O)[C@@H]1CCCN1C(=O)[C@@H](NC(=O)[C@H](CC(=O)O)NC(=O)CNC(=O)[C@H](CCCNC(=N)N)NC(=O)[C@H](CC(N)=O)NC(=O)[C@H](CCC(=O)O)NC(=O)[C@@H](NC(=O)[C@H](CC(C)C)NC(=O)[C@H](CS)NC(=O)[C@H](CCCNC(=N)N)NC(=O)[C@H](Cc1ccccc1)NC(=O)c1ccc2c(c1)C(=O)OC21c2ccc(N(C)C)cc2Oc2cc(N(C)C)ccc21)C(C)C)C(C)C)C(C)C)[C@@H](C)O)C(=O)N[C@@H](CCCNC(=N)N)C(N)=O [MTfp-TAMRA] (5TAMRA-FRCLVENRGDVPFVTRIR-NH2) | – | 4.57 (0.64) x 10^−6 cm/s | 5.86 (1.27) x 10^−6 cm/s | Papp A→B at 2 h, 10 µM [2]: 2.55 ×10⁻⁶ cm/s |
| GYRPVHNIRGHWAPGK-NH2 [GYR] | 7.00 | – | – | pKd [3]: 3.00; Remaining peptide most likely trapped inside the filter membrane or in the endothelial cell layer (bEnd.3 cells; 100% minus collected): 1.7% |
| CC[C@H](C)[C@H](NC(=O)[C@H](CC(N)=O)NC(=O)[C@H](Cc1c[nH]cn1)NC(=O)[C@@H](NC(=O)[C@@H]1CCCN1C(=O)[C@H](CCCNC(=N)N)NC(=O)[C@H](Cc1ccc(O)cc1)NC(=O)CN)C(C)C)C(=O)N[C@@H](CCCNC(=N)N)C(=O)NCC(=O)N[C@@H](Cc1c[nH]cn1)C(=O)N[C@@H](Cc1c[nH]c2ccccc12)C(=O)N[C@@H](C)C(=O)N1CCC[C@H]1C(=O)NCC(=O)N[C@@H](CCCCNC(=O)c1ccc2c(c1)C(=O)OC21c2ccc(N(C)C)cc2Oc2cc(N(C)C)ccc21)C(N)=O [GYR-TAMRA] (H-GYRPVHNIRGHWAPGK(5TAMRA)-NH2) | – | 15.17 (1.83) x 10^−6 cm/s | 12.82 (3.11) x 10^−6 cm/s | Papp (bEnd.3 + filter), calculated concentrations based on a standard curve (bEnd.3 cells; [6]): 6.71 ×10⁻⁶ cm/s; Papp (bEnd.3 + filter), calculated final basal concentration and the 10 µM initial apical concentration (bEnd.3 cells; [6]): 6.31 ×10⁻⁶ cm/s; Papp, bEnd.3+F (apparent permeability through bEnd.3 grown on filter) (bEnd.3 cells; bEnd.3 non-contact co-culture with rat astrocytes, polyester Transwell 0.4 μm, 10 μM apical, 2 h, shaken, apical to basolateral, fluorescence (RFU values) Ex 535/Em 585 nm, mean (SD) of three independent experiments with triplicates): 6.64 (1.16) x 10^−6 cm/s |
